Data: article PMC7039684, “Control of cell death/survival balance by the MET dependence receptor” (eLife, 2020)

Tests used:
Test in all cases: FRET or BRET; FLIM-FRET by TCSPC in live co-transfected HEK293T cells, 37°C, L-15 medium; lifetime of the mT2 donor against donor alone; SYFP2 or EYFP fusion as acceptor
[1] = target: BAK-mTurquoise2 (UniProt Q16611)
[2] = target: T1, BAK-SYFP2 (UniProt Q16611 1-211); conditions: partners not purified
T1 construct: BAK, pro-apoptotic BCL2 family protein; amplified by PCR from Flag-tagged BAK; Cloned with EcoRI and XhoI into the SYFP2 plasmid; also called SYFP2-BAK; source: HEK293T or IHH cells, transfected, in live cells
T1 sequence (looked up): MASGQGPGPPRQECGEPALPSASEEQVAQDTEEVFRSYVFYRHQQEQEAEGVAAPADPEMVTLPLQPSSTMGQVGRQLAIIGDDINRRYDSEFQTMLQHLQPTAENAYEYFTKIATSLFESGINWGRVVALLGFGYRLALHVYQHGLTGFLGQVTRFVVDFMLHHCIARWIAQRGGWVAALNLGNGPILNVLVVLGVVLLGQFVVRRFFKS

[3] = target: T2, BAX-SYFP2 (UniProt Q07812 1-192); conditions: partners not purified
T2 construct: BAX, pro-apoptotic BCL2 family protein; amplified by PCR from Flag-tagged BAX; Cloned with EcoRI and XhoI into the SYFP2 plasmid; also called SYFP2-tagged BAX; source: HEK293T, transfected, in live cells
T2 sequence (Q07812 whole entry): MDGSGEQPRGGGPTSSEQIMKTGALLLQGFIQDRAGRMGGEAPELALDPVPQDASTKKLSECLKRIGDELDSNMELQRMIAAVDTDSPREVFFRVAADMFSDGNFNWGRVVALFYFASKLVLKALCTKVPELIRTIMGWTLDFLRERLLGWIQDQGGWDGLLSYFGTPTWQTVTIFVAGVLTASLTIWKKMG

[4] = target: T3, BAX-mTurquoise2 (UniProt Q07812 1-192); conditions: partners not purified
T3 construct: BAX, pro-apoptotic BCL2 family protein; amplified by PCR from Flag-tagged BAX; Cloned with EcoRI and XhoI into the mTurquoise2 plasmid; also called BAX-mT2; mT2-fused BAX; source: HEK293T, transfected, in live cells
T3 sequence (Q07812 whole entry, the tested form may be a part): as the sequence (Q07812 whole entry) above

free SYFP2 (Super Yellow Fluorescent Protein 2)
mean FRET efficiency [1]: < 0.1%

B1: p40MET-mTurquoise2 (domain or fragment, mouse, UniProt P16056 1001-1374, looked up)
chain: YRATFPEDQFPNSSQNGACRQVQYPLTDLSPILTSGDSDISSPLLQNTVHIDLSALNPELVQAVQHVVIGPSSLIVHFNEVIGRGHFGCVYHGTLLDNDGKKIHCAVKSLNRITDIEEVSQFLTEGIIMKDFSHPNVLSLLGICLRSEGSPLVVLPYMKHGDLRNFIRNETHNPTVKDLIGFGLQVAKGMKYLASKKFVHRDLAARNCMLDEKFTVKVADFGLARDMYDKEYYSVHNKTGAKLPVKWMALESLQTQKFTTKSDVWSFGVLLWELMTRGAPPYPDVNTFDITIYLLQGRRLLQPEYCPDALYEVMLKCWHPKAEMRPSFSELVSRISSIFSTFIGEHYVHVNATYVNVKCVAPYPSLLPSQDNID
notes: limits worked out from the stated caspase sites; also called p40MET-mT2; mT2-p40MET; source: HEK293T or IHH cells, transfected, in live cells
mean FRET efficiency [2]: 4%
mean FRET efficiency [3]: 2.5%

B2: p40MET-SYFP2 (domain or fragment, mouse, UniProt P16056 1001-1374, looked up)
chain: B1 chain
notes: limits worked out from the stated caspase sites; also called SYFP2-p40MET; source: HEK293T or IHH cells, transfected, in live cells
mean FRET efficiency [4]: 4.3%
